B1: Phage-618 (peptide)
peptide: YCDGHTQEYMAKCL
notes: tested as crude phage supernatant
B2: Phage-649 (peptide)
peptide: YCDGHMPEYMLKCL
notes: as for B1
B3: Phage-652 (peptide)
peptide: YCEGHSPQYMQKCL
notes: as for B1
B4: Phage-621 (peptide)
peptide: YCAGHSPEYMTKCL
notes: as for B1
B5: Phage-635 (peptide)
peptide: YCDGHSDEYMAKCL
notes: Clonal phage displaying the peptide; not shown: fused to pIII of the bacteriophage
B6: Phage-650 (peptide)
peptide: YCSGHAPIYMAKCL
notes: as for B1
B7: Phage-651 (peptide)
peptide: YCAGHTQEYMSKCL
notes: as for B1
B8: Phage-637 (peptide)
peptide: YCDGHQPEYMAKCL
notes: as for B5
B9: Phage-623 (peptide)
peptide: YCDGHVAEYRDKCL
notes: as for B1
B10: Phage-643 (peptide)
peptide: YCEGHLPQYIPKCL
notes: as for B5
B11: Phage-644 (peptide)
peptide: YCDGHAPQYMLKCL
notes: as for B1
B12: Phage-638 (peptide)
peptide: YCAGHLPEYISKCL
notes: as for B5
B13: Phage-622 (peptide)
peptide: YCAGHAPEYIQKCL
notes: as for B1
B14: Phage-624 (peptide)
peptide: YCAGHAPEYMQKCL
notes: as for B1
B15: Phage-620 (peptide)
peptide: YCDGHMPEYMWKCL
notes: as for B1
B16: Phage-640 (peptide)
peptide: YCEGHLPQYLAKCL
notes: as for B5
B17: Phage-639 (peptide)
peptide: YCDGHIPIYMSKCL
notes: as for B5
B18: Phage-654 (peptide)
peptide: YCDGHSAEYMSKCL
notes: as for B1
B19: Phage-628 (peptide)
peptide: YCDGHLPEYMWKCI
notes: as for B1
B20: Phage-626 (peptide)
peptide: YCEGHLPQYLQKCL
notes: as for B1
B21: Phage-646 (peptide)
peptide: YCMGHSEEYMQKCL
notes: as for B1
B22: Phage-631 (peptide)
peptide: YCEGHLPEYMSKCL
notes: as for B5
B23: Phage-636 (peptide)
peptide: YCEGHSLEYIGKCL
notes: as for B5
B24: Phage-619 (peptide)
peptide: YCEGHLPVYMWKCL
notes: as for B1
B25: Phage-633 (peptide)
peptide: YCDGHLGIYMWKCL
notes: as for B5
B26: Phage-648 (peptide)
peptide: YCDGHLEEYMAKCL
notes: as for B1
B27: Phage-632 (peptide)
peptide: YCAGHLPEYMQKCL
notes: as for B5
B28: Phage-642 (peptide)
peptide: YCDGHSAEYMMKCL
notes: as for B5
B29: Phage-645 (peptide)
peptide: YCDGHLPVYMAKCL
notes: as for B1
B30: Phage-647 (peptide)
peptide: YCDGHLPEYMHKCL
notes: as for B1
B31: Phage-641 (peptide)
peptide: YCAGHLPLYMEKCL
notes: as for B5
B32: Phage-653 (peptide)
peptide: YCDGHVPQYMAKCL
notes: as for B1
B33: Phage-629 (peptide)
peptide: YCDGHSAEYMWKCL
notes: as for B1
B34: Phage-625 (peptide)
peptide: YCDGHSNEYMAKCL
notes: as for B1
B35: Phage-630 (peptide)
peptide: YCDGHSLEYMAKCL
notes: as for B1
B36: Phage-627 (peptide)
peptide: YCDGHVAEYMAKCL
notes: as for B1
B37: Phage-634 (peptide)
peptide: YCEGHSAEYMAKCL
notes: as for B5

What was measured:
[1] = molecular target: anti-CD28 Fab (SEQ ID NOs: 696, 697); assay: phage binding ELISA; Fab on plate pre-incubated with CD28 antigen as competitor, anti-M13 HRP detection;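 note: crude clonal phage supernatants screened by ELISA, with comparison wells pre-incubated in blocking buffer only, lacking CD28 antigen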
Procedure: (§1) After panning, phage infected bacteria were plated out and colonies picked into 96 well blocks. Clonal phage was then amplified and separated from bacterial cells via centrifugation.
(§2) Clonal phage were harvested as crude supematants and screened via standard ELISAs. […] Prior to the addition of clonal phage, wells were incubated with blocking buffer and CD28 antigen or blocking buffer alone. Without washing or aspirating, clonal phage supematants were then added to the wells and incubated for a short time. Wells were then washed followed by detection of bound phage using a horse radish conjugated anti-M13 antibody. Clonal phage of interest were then sent for sequence analysis.

[2] = molecular target: anti-CD28 Fab (SEQ ID NOs: 696, 697); assay: phage binding ELISA; biotinylated Fab on neutravidin plate, clonal phage supernatant, anti-M13 HRP detection;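 note: phage from clones picked after panning, added to wells pre-incubated with blocking buffer with or without CD28 antigen, then briefly incubated and washed before detection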
Procedure: as §1, §2

[3] = molecular target: T1, Anti-CD28 Fab (SEQ ID NOs: 696, 697) (biotinylated (site not stated)); assay: phage binding ELISA; Fab-coated wells pre-incubated with CD28 antigen as competitor, then clonal phage, anti-M13 HRP detection
[4] = molecular target: T1, Anti-CD28 Fab (SEQ ID NOs: 696, 697); assay: phage binding ELISA; biotinylated anti-CD28 Fab on neutravidin plates, clonal phage supernatant, anti-M13 HRP detection
Procedure: as §1, §2

[5] = molecular target: Anti-CD28 Fab (SEQ ID NOs: 696, 697); assay: phage ELISA, biotinylated anti-CD28 Fab on neutravidin plate, anti-M13 HRP detection
Procedure: as §1, §2

[6] = molecular target: Anti-CD28 Fab (SEQ ID NOs: 696, 697); assay: phage ELISA on captured anti-CD28 Fab, wells pre-incubated with CD28 antigen as competitor;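 note: crude clonal phage supernatants added without washing, bound phage read out by HRP-coupled anti-M13 antibody, reference wells given blocking buffer only instead of CD28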
Procedure: as §1, §2

T1 sequence (VH, as listed by the source, chain 1 of 2): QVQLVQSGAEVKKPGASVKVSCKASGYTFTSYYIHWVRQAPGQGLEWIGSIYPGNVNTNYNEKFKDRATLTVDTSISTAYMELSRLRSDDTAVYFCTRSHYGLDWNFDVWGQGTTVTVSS
T1 sequence (VL, as listed by the source, chain 2 of 2): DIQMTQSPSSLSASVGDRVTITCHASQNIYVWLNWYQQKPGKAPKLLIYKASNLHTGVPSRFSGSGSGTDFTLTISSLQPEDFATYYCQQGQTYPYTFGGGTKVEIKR
T1 sequence (VH, as listed by the source, chain 1 of 2): as the sequence (VH, as listed by the source, chain 1 of 2) above
T1 sequence (VL, as listed by the source, chain 2 of 2): as the sequence (VL, as listed by the source, chain 2 of 2) above
Sequence of anti-CD28 Fab (SEQ ID NOs: 696, 697) (VH, as listed by the source, chain 1 of 2): as the sequence (VH, as listed by the source, chain 1 of 2) above
Sequence of anti-CD28 Fab (SEQ ID NOs: 696, 697) (VL, as listed by the source, chain 2 of 2): as the sequence (VL, as listed by the source, chain 2 of 2) above

Row | Binder | Anti-CD28 Fab signal in the presence of CD28 [1] | Anti-CD28 Fab (SEQ ID NOs: 696, 697) signal [2] | Anti-CD28 Fab signal (phage binding ELISA) [5] | Anti-CD28 Fab signal in the presence of CD28 (phage binding ELISA) [6] | also measured
1 | B1 | 0.07 | 2.17 |  |  | 
2 | B2 |  |  |  |  | Anti-CD28 Fab signal in the presence of CD28 (phage binding ELISA) [3]: 0.09; Anti-CD28 Fab signal (phage binding ELISA) [4]: 2.11
3 | B3 |  |  |  |  | Anti-CD28 Fab signal in the presence of CD28 (phage binding ELISA) [3]: 0.06; Anti-CD28 Fab signal (phage binding ELISA) [4]: 2.1
4 | B4 | 0.09 | 2.17 |  |  | 
5 | B5 |  |  | 2.14 | 0.07 | 
6 | B6 |  |  |  |  | Anti-CD28 Fab signal in the presence of CD28 (phage binding ELISA) [3]: 0.07; Anti-CD28 Fab signal (phage binding ELISA) [4]: 2.1
7 | B7 |  |  |  |  | Anti-CD28 Fab signal in the presence of CD28 (phage binding ELISA) [3]: 0.05; Anti-CD28 Fab signal (phage binding ELISA) [4]: 2.1
8 | B8 |  |  | 2.14 | 0.07 | 
9 | B9 | 0.07 | 2.17 |  |  | 
10 | B10 |  |  | 2.12 | 0.07 | 
11 | B11 |  |  |  |  | Anti-CD28 Fab signal in the presence of CD28 (phage binding ELISA) [3]: 0.09; Anti-CD28 Fab signal (phage binding ELISA) [4]: 2.12
12 | B12 |  |  | 2.14 | 0.08 | 
13 | B13 | 0.09 | 2.17 |  |  | 
14 | B14 | 0.07 | 2.16 |  |  | 
15 | B15 | 0.09 | 2.17 |  |  | 
16 | B16 |  |  | 2.12 | 0.1 | 
17 | B17 |  |  | 2.13 | 0.08 | 
18 | B18 |  |  |  |  | Anti-CD28 Fab signal in the presence of CD28 (phage binding ELISA) [3]: 0.06; Anti-CD28 Fab signal (phage binding ELISA) [4]: 2.1
19 | B19 | 0.07 | 2.15 |  |  | 

Row | Binder | Anti-CD28 Fab signal in the presence of CD28 [1] | Anti-CD28 Fab (SEQ ID NOs: 696, 697) signal [2] | Anti-CD28 Fab signal (phage binding ELISA) [5] | Anti-CD28 Fab signal in the presence of CD28 (phage binding ELISA) [6] | also measured
20 | B20 | 0.09 | 2.16 |  |  | 
21 | B21 |  |  |  |  | Anti-CD28 Fab signal in the presence of CD28 (phage binding ELISA) [3]: 0.07; Anti-CD28 Fab signal (phage binding ELISA) [4]: 2.11
22 | B22 |  |  | 2.15 | 0.07 | 
23 | B23 |  |  | 2.14 | 0.06 | 
24 | B24 | 0.09 | 2.17 |  |  | 
25 | B25 |  |  | 2.14 | 0.08 | 
26 | B26 |  |  |  |  | Anti-CD28 Fab signal in the presence of CD28 (phage binding ELISA) [3]: 0.09; Anti-CD28 Fab signal (phage binding ELISA) [4]: 2.11
27 | B27 |  |  | 2.15 | 0.09 | 
28 | B28 |  |  | 2.12 | 0.08 | 
29 | B29 |  |  |  |  | Anti-CD28 Fab signal in the presence of CD28 (phage binding ELISA) [3]: 0.09; Anti-CD28 Fab signal (phage binding ELISA) [4]: 2.11
30 | B30 |  |  |  |  | Anti-CD28 Fab signal in the presence of CD28 (phage binding ELISA) [3]: 0.11; Anti-CD28 Fab signal (phage binding ELISA) [4]: 2.11
31 | B31 |  |  | 2.12 | 0.06 | 
32 | B32 |  |  |  |  | Anti-CD28 Fab signal in the presence of CD28 (phage binding ELISA) [3]: 0.07; Anti-CD28 Fab signal (phage binding ELISA) [4]: 2.1
33 | B33 | 0.08 | 2.15 |  |  | 
34 | B34 | 0.07 | 2.16 |  |  | 
35 | B35 | 0.06 | 2.15 |  |  | 
36 | B36 | 0.07 | 2.16 |  |  | 
37 | B37 |  |  | 2.14 | 0.06 | 

Reference: patent publication US20260242478A1 (published 2026)
